The supplement of paper PMC11246515
± gives the standard deviation of the averaged measurements.

Test: total protein half-life in vivo (active degradation + dilution); higher = more stable protein
[1] = E. coli NCM3722 delta-smpB, growth: N-lim chemostat, doubling time 6 h
[2] = wild type E. coli NCM3722, growth: C-lim chemostat, doubling time 6 h
[3] = wild type E. coli NCM3722, growth: N-lim chemostat, doubling time 6 h
[4] = wild type E. coli NCM3722, growth: P-lim chemostat, doubling time 6 h
[5] = wild type E. coli NCM3722, growth: P-lim chemostat, doubling time 12 h
[6] = E. coli NCM3722 delta-clpP delta-lon delta-hslV, growth: N-lim chemostat, doubling time 6 h
[7] = E. coli NCM3722 delta-clpP, growth: N-lim chemostat, doubling time 6 h
[8] = E. coli NCM3722 delta-hslV, growth: N-lim chemostat, doubling time 6 h
[9] = wild type E. coli NCM3722, growth: N-lim chemostat, doubling time 12 h
[10] = E. coli NCM3722 delta-lon, growth: N-lim chemostat, doubling time 6 h
[11] = wild type E. coli NCM3722, growth: C-lim chemostat, doubling time 3 h
[12] = wild type E. coli NCM3722, growth: C-lim chemostat, doubling time 12 h

| Sequence | total protein half-life in vivo [1] | total protein half-life in vivo [2] | total protein half-life in vivo [3] | total protein half-life in vivo [4] | total protein half-life in vivo [5] | total protein half-life in vivo [6] | total protein half-life in vivo [7] | total protein half-life in vivo [8] | total protein half-life in vivo [9] | total protein half-life in vivo [10] | total protein half-life in vivo [11] | total protein half-life in vivo [12] |
| --- | --- | --- | --- | --- | --- | --- | --- | --- | --- | --- | --- | --- |
| MSRINKFVLTVSLLIFIMISAVACGIYTQMVKERVYSLKQSVIDTAFAVANIAEYRRSVAIDLINTLNPTEEQLLVGLRTAYADSVSPSYLYDVGPYLISSDECIQVKEFEKNYCADIMQVVKYRHVKNTGFISFDGKTFVYYLYPVTHNRSLIFLLGLERFSLLSKSLAMDSENLMFSLFKNGKPVTGDEYNAKNAIFTVSEAMEHFAYLPTGLYVFAYKKDVYLRVCTLIIFFAALVAVISGASCLYLVRRVINRGIVEKEAIINNHFERVLDGGLFFSAADVKKLYSMYNSAFLDDLTKAMGRKSFDEDLKALPEKGGYLCLFDVDKFKNINDTFGHLLGDEVLMKVVKILKSQIPVDKGKVYRFGGDEFAVIYTGGTLEELLSILKEIVHFQVGSINLSTSIGVAHSNECPTVERLKMLADERLYKSKKNGRAQISWQ | 5.51 ± 1.1 h | 5.63 ± 1.6 h | 6.47 ± 1.1 h | 6.08 ± 0.31 h | 13.1 ± 1.4 h | – | – | – | – | – | – | – |
| MLTLLHLLSAVALLVWGTHIVRTGVMRVFGARLRTVLSRSVEKKPLAFCAGIGVTALVQSSNATTMLVTSFVAQDLVALAPALVIVLGADVGTALMARILTFDLSWLSPLLIFIGVIFFLGRKQSRAGQLGRVGIGLGLILLALELIVQAVTPITQANGVQVIFASLTGDILLDALIGAMFAIISYSSLAAVLLTATLTAAGIISFPVALCLVIGANLGSGLLAMLNNSAANAAARRVALGSLLFKLVGSLIILPFVHLLAETMGKLSLPKAELVIYFHVFYNLVRCLVMLPFVDPMARFCKTIIRDEPELDTQLRPKHLDVSALDTPTLALANAARETLRIGDAMEQMMEGLNKVMHGEPRQEKELRKLADDINVLYTAIKLYLARMPKEELAEEESRRWAEIIEMSLNLEQASDIVERMGSEIADKSLAARRAFSLDGLKELDALYEQLLSNLKLAMSVFFSGDVTSARRLRRSKHRFRILNRRYSHAHVDRLHQQNVQSIETSSLHLGLLGDMQRLNSLFCSVAYSVLEQPDEDEGRDEY [P0AF43] | – | 5.38 ± 0.19 h | 6.48 h | 6.1173 ± 0.0061 h | 11.55 ± 0.033 h | 6.4 h | 6.35 ± 0.26 h | 5.73 ± 0.74 h | 10.5 ± 4.5 h | – | – | – |
| MKHDHFVVQSPDKPAQQLLLLFHGVGDNPVAMGEIGNWFAPLFPDALVVSVGGAEPSGNPAGRQWFSVQGITEDNRQARVDAIMPTFIETVRYWQKQSGVGANATALIGFSQGAIMVLESIKAEPGLASRVIAFNGRYASLPETASTATTIHLIHGGEDPVIDLAHAVAAQEALISAGGDVTLDIVEDLGHAIDNRSMQFALDHLRYTIPKHYFDEALSGGKPGDDDVIEMM | 2.67 ± 0.22 h | 6.03 ± 2.2 h | 2.93 ± 0.19 h | 4.46 ± 0.27 h | 6.94 ± 0.16 h | 4.732 ± 0.016 h | – | 2.76 ± 0.035 h | 3.93 ± 0.66 h | 3.46 ± 0.23 h | 3.16 ± 0.45 h | 5.97 ± 1.4 h |
| MTILNHTLGFPRVGLRRELKKAQESYWAGNSTREELLAVGRELRARHWDQQKQAGIDLLPVGDFAWYDHVLTTSLLLGNVPARHQNKDGSVDIDTLFRIGRGRAPTGEPAAAAEMTKWFNTNYHYMVPEFVKGQQFKLTWTQLLDEVDEALALGHKVKPVLLGPVTWLWLGKVKGEQFDRLSLLNDILPVYQQVLAELAKRGIEWVQIDEPALVLELPQAWLDAYKPAYDALQGQVKLLLTTYFEGVTPNLDTITALPVQGLHVDLVHGKDDVAELHKRLPSDWLLSAGLINGRNVWRADLTEKYAQIKDIVGKRDLWVASSCSLLHSPIDLSVETRLDAEVKSWFAFALQKCHELALLRDALNSGDTAALAEWSAPIQARRHSTRVHNPAVEKRLAAITAQDSQRANVYEVRAEAQRARFKLPAWPTTTIGSFPQTTEIRTLRLDFKKGNLDANNYRTGIAEHIKQAIVEQERLGLDVLVHGEAERNDMVEYFGEHLDGFVFTQNGWVQSYGSRCVKPPIVIGDISRPAPITVEWAKYAQSLTDKPVKGMLTGPVTILCWSFPREDVSRETIAKQIALALRDEVADLEAAGIGIIQIDEPALREGLPLRRSDWDAYLQWGVEAFRINAAVAKDDTQIHTHMCYCEFNDIMDSIAALDADVITIETSRSDMELLESFEEFDYPNEIGPGVYDIHSPNVPSVEWIEALLKKAAKRIPAERLWVNPDCGLKTRGWPETRAALANMVQAAQNLRRG | 2.6 ± 0.53 h | 4.22 ± 0.071 h | 2.56 ± 0.063 h | 4.14 ± 0.21 h | 6.88 ± 1.1 h | 3.21 ± 0.81 h | 2.4 ± 0.23 h | 2.34 ± 0.34 h | 3.593 ± 0.023 h | 2.938 ± 0.012 h | 2.48 ± 0.19 h | 6.91 ± 0.33 h |
| MNKTQLIDVIAEKAELSKTQAKAALESTLAAITESLKEGDAVQLVGFGTFKVNHRAERTGRNPQTGKEIKIAAANVPAFVSGKALKDAVK [P0ACF0] | 5.39 ± 0.12 h | 5.55 ± 0.72 h | 5.15 ± 0.27 h | 4.73 ± 0.92 h | 11.1 ± 1.5 h | 7.47 ± 0.039 h | 6.29 ± 0.51 h | 5.45 ± 0.31 h | 11.91 ± 0.1 h | 6.06 ± 0.22 h | 3.04 ± 0.19 h | 10 ± 0.23 h |
| MTMYATLEEAIDAAREEFLADNPGIDAEDANVQQFNAQKYVLQDGDIMWQVEFFADEGEEGECLPMLSGEAAQSVFDGDYDEIEIRQEWQEENTLHEWDEGEFQLEPPLDTEEGRAAADEWDER | 3.22 ± 0.1 h | 3.94 ± 0.066 h | 3.33 ± 0.17 h | 3.9 ± 0.2 h | 7.26 h | – | 6.11 h | 3.33 h | 4.03 h | 3.3 ± 0.71 h | 2.35 ± 0.29 h | 6.75 ± 1.1 h |
| MSALNKKSFLTYLKEGGIYVVLLVLLAIIIFQDPTFLSLLNLSNILTQSSVRIIIALGVAGLIVTQGTDLSAGRQVGLAAVVAATLLQSMDNANKVFPEMATMPIALVILIVCAIGAVIGLINGLIIAYLNVTPFITTLGTMIIVYGINSLYYDFVGASPISGFDSGFSTFAQGFVALGSFRLSYITFYALIAVAFVWVLWNKTRFGKNIFAIGGNPEAAKVSGVNVGLNLLMIYALSGVFYAFGGMLEAGRIGSATNNLGFMYELDAIAACVVGGVSFSGGVGTVIGVVTGVIIFTVINYGLTYIGVNPYWQYIIKGAIIIFAVALDSLKYARKK | 6.18 ± 0.67 h | – | – | 5.49 ± 1.3 h | – | 3.21 h | 6.19 h | 6.83 ± 0.54 h | – | 6.18 h | 3.05 ± 0.18 h | 12 ± 0.2 h |
